This data set addresses T1, CzcR (His6-CzcR) (Pseudomonas aeruginosa PAO1?) (UniProt Q9RLJ1).
T1 sequence: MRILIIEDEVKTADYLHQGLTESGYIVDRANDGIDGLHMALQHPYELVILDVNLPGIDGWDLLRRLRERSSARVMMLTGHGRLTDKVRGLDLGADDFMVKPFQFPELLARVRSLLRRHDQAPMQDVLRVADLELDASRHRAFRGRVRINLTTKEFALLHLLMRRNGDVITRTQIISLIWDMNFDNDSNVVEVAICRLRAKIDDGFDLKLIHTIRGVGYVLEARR
Description: EMSA. (A gel shift assay detects complexes by their altered migration in electrophoresis.)
For the sequence “GAATCCACCTGAAACCCACGCCCAGCAAGGCCTATAGCACTAATCACAGACGCCCTTGACCTCAACTTAACTTGAGGTTTTATAGTCCCCGCTGCGGTCATACCGCCCCGTTTCCCCAGGACCACGAACCGCCCCCACGGCCGCTTCGCGGCGCCGGATGGCGACCAGCACAAGGAACGACCCATGCAGCGCTTC (double strand) [mexGHI-opmD promoter probe (PmexG)]”, the binding result is recorded as “binds”.

In the case of “GATAACCGGCCATCGAGCTAAAACGTTTCAGGTGTTTTCACGCGAGGCTTTCGGACGTTTACAAACACCTATGAATGTAAGTATTTTGCCTGCCTTCTTCGAGCCGGTGCAGCGCCTTCACGCTGCATCGGCCGCTTTCGCTCATGAGGACAACGCTATGCAACGAAC (double strand) [mexAB-oprM promoter probe (PmexA)]”, the binding entry was “binds”.

In the case of “GCAACCGTTCGGAACATTCTTCCCGTCGGGGGTAGGCGAGCGACTTGCCCTGTGGAATAATACTGTCTACTTATACAGTTGTTCGTGGCCGTCCGGCCGCCCTGACTTCGCGAGGACTTCAATGGA (double strand) [recA promoter fragment (PrecA)]”, the binding result is “no binding”.

Values taken from publication PMC10581170.
